The source of these data is patent publication US20130210888.

Series [1] relates to CoREST del 2 (aa 293-482), His-tagged.
For series [2], the system named is His-tagged full length (1-482aa) human CoREST.

Take “histidine epitope-tagged LSD1 (HIS-LSD1), full length (1-851aa) human LSD1”: in series [1], the “stimulation of LSD1 demethylation activity (nucleosomal substrates)” value is recorded as “sufficient to mediate stimulation of LSD1 demethylation activity to a level that is comparable to that of the wildtype CoREST”. Besides, in series [2], the “demethylation of nucleosomal substrates by LSD1 (Western blot with K4-H3 methylation-specific antibodies)” value is “addition of CoREST to the demethylation reaction restored the ability of recombinant LSD1 to demethylate nucleosomal substrates”.
